Experimental data published in PMC3564912, “Single Particle Electron Microscopy Analysis of the Bovine Anion Exchanger 1 Reveals a Flexible Linker Connecting the Cytoplasmic and Membrane Domains” (PLoS ONE, 2013).

Target: the molecule itself
Experiment: SEC; Superose 6 10/300, 50 mM Tris-HCl pH 7.5, 0.03% DDM, 0.15 M NaCl; sample after ion exchange and the dimer fraction run again

B1: bovine anion exchanger 1 (AE1) (natural protein, UniProt Q9XSW5 1-930, looked up)
chain: MGDPEEYEDQLEETLEQKEYEDHDSVSIPMEEAEGDTIQEEEAEARVNQLTDTDYHTTSQHPETHKVCVQLRELVMDEKNQEIQWMETARWVGLEENLGKDGIWGRPHLPYLNFWSLLELQKAFAKGTVLLDLPGKSLAEVANQLLDRFTFEGQIQPDDQDNLLRVLLLKHSHASDMEALGGVKPVVVTHSGDPSEPLLPQHPSLETELFCEQGEGSTRGHAPEILGKSPQDWEATLVLVGCARFLKRPVLGFVRLKEPMEPEPKPEGSEEPAVPVRFLIVLLGPEGPNINYTQLGRAAATLMSERVFWNDAYLAQSKETLVQSLEGFLDCSLVLPPLDAPSEKALLSLVPVQKELLRRRYLPSPAKPDPSIFKDLDVKKGPGDTPEDPLQRTGKLFGGLVRDIRRRYPRYLSDITDALSPQVLSAIIFIYFAALTPAITFGGLLGDKTENMIGVSELLLSTALQGIIFSLLGAQPLLVLGFSGPLLVFEEAFYSFCQTNNLEYIVGRVWIGFWLILLVVLVVAFEGSFLVRFISRYTQEIFSFLISLIFIYETFYKLVTIFQDHPLQKNYDHDVLTTPKPQAALPNTALLSLVLMAGTFFLAMMLRKFKNSSYFPGKLRRIIGDFGVPISILIMVMVDALIQDTYTQKLSVPEGLSVSNPTERDWLIHPLGIRVEFPIWMMFASALPALLVFILIFLESQITTLIISKPERKMVKGSGFHLDLLLIIGMGGVGAIFGMPWLSATTVRTVTHANALTVMSKDSTPGAVSQIQGVKEQRISGLLVAVLVGVSILMGPVLRHIPLAVLFGIFLYMGVTSLSGIQLFDRVLLLLKPRKYYPEVPYARRVKTWRMHLFTITQIVCLVVLWVVRSIKQISLALPFILILTVPLRRFLLPFIFRDMELKLLDADDVKLNLDEQNGQDEYDEVAMPV
notes: anion exchanger 1 (AE1, band 3), bovine, native protein from erythrocyte membranes; monomer about 100 kDa; Solubilised in dodecyl maltoside (0.03% DDM in the final buffer); The dimer fraction from size exclusion was used; also called bovine AE1; full-length AE1 dimer; source: purified from bovine erythrocyte membranes (ghosts; DDM extraction, DE-52 ion exchange, Superose 6 size exclusion)
With B1 the “stoichiometry N” value was 2.
